Test results: patent publication US20240317871A1 (IMMUNOMIC THERAPEUTICS, published 2024)
Substitutions are numbered along the chain they refer to.

T1: His-tagged human HVEM (human, UniProt Q92956 39-202, limits assumed)
T1 construct: Analyte of the BLI assay, 200 nM in PBS; not shown: His tag
T1 sequence (looked up): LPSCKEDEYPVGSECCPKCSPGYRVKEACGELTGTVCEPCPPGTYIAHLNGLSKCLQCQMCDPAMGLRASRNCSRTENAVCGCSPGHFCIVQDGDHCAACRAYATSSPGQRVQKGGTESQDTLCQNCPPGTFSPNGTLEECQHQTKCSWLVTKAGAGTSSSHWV

T2: Human HEVM recombinant protein (Sino Biological, 10334-H02H) (human, UniProt Q92956 39-202)
T2 construct: construct known only by catalogue number; also called HVEM; human HVEM
T2 sequence (looked up): T1 sequence (looked up)

T3: human HVEM (human, UniProt Q92956 39-202, limits assumed)
T3 sequence (looked up): T1 sequence (looked up)

T4: cynomolgus monkey HVEM (cynomolgus monkey, UniProt A0A2K5W0R1 39-203)
T4 sequence: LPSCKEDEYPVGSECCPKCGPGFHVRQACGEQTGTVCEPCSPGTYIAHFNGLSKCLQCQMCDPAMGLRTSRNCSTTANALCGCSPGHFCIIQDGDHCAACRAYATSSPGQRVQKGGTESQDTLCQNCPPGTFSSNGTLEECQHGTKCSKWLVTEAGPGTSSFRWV

T5: murine HVEM (murine, UniProt Q80WM9 39-206, limits assumed)
T5 construct: also called Mouse
T5 sequence (looked up): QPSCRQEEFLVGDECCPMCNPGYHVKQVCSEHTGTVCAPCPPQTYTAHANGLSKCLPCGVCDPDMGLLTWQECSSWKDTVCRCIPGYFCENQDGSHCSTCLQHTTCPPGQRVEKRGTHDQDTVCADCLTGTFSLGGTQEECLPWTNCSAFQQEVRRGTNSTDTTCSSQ

B1: Ab_004 (H5S14-24A4A) (antibody, V domains shown)
VH: EVQLQQSGPELVKPGTSVKISCKTSGYTITEYTMHWVKQSHGKSLEWIGGINPNNGGTINNQKFKDKATLTVDMSSSTAYMELRSLTSEDSAVYYCAGSVVDRYWYFDVWGAGTTVTVSS
VL: QIVLTQSPAIMSASPGEKVTISCSASSSVSYMYWYQQKPGSSPKPWIYRTSNLASGVPARFSGSGSGTSYSLTISSMEAEDAATYYCQQYHSYPLTFGAGTKLELK
notes: also called Ab_4
B2: Ab_005 (H5S14-4A4A) (antibody, V domains shown)
VH: B1 VH with T16A, I29F, N54Y, D66G
VL: B1 VL
notes: also called Ab_5
B3: Ab_053 (H5S19-20A20A) (antibody, V domains shown)
VH: QVQLKESGPGLVAPSQSLSITCTVSGFSLTSYGVHWVRQPPGKGLEWLGVIWAGGITNYNSALMSRLSISKDNSKSQVFLKMNSLQTDDTAMYYCARDWERDSSGPFVYWGQGTLVTVSA
VL: DIQMTQTTSSLSASLGDRVTISCTASQGISNYLNWYQQKPDGTVKLLIYYTSTLHSGVPSRFSGSGSGTDYSLTISNLEPEDIATYYCQQYFKLPWTFGGGTKLEIK
notes: also called Ab_53
B4: Ab_052 (H5S19-18A17B) (antibody, V domains shown)
VH: B3 VH with S31I, T57I, T87S, V108A
VL: B3 VL with T24S, T53S, S63R, F92S
notes: also called Ab_52
B5: Ab_073 (H5S20-9A9A) (antibody, V domains shown)
VH: EVQLQQSGADLVKPGASVKLSCTASGFNIRDTYMHWVNQRPEQGLEWIGRIDPANGNTKYAPKFQGRATITADTSSNTAYLHLSSLTSEDTAVYYCAGYGNSPWFAYWGQGTLVTVSA
VL: DVLMTQTPLSLPVNLGDQASISCRSSQSIVHSNGNTYLEWYLQKPGQSPKLLIYKVSNRFSGVPDRFSGSGSGTDFTLKISRVEAEDLGVYYCFQGSHVPLTFGAGTKLELK
notes: also called Ab_73
B6: Ab_074 (H5S20-52A21A) (antibody, V domains shown)
VH: B5 VH with D10E, R30K, M34I, V37L, N57K, Y60F, G66D, R67K, H82Q
VL: B5 VL with N14S, F60V
notes: also called Ab_74
B7: Ab_077 (H5S20-31A16B) (antibody, V domains shown)
VH: EVQLQQSGAELVRSGASVKLSCTTSGFNIKDYYMHWVKQRPEQGLEWIGWIDPENGDTEYAPKFQGKATMTADTSSNTAYLQLSSLTSEDTAVYYCNSRTLGYWGQGTLVTVSA
VL: QIVLTQSPALMSASPGEKVTMTCSASSSVSFIYWYQQKPRSSPKPWIYLTSNLASGVPARFSGSGSGTSYSLTISSMEAEDAATYYCQQWSSNPLTFGAGTKLEL
notes: also called Ab_77
B8: Ab_008 (H5S14-11A10A) (antibody, V domains shown)
VH: EVKLVESGGGLVKPGGSLRLSCAASGFTFSSFAMSWIRQTPEKGLEWVASITTGGSSYSPDSLKGRFTISRDNVRNIVYLQMSSLRSEDTAMYACARGGGGNYFWFAYWGQGTLVTVSA
VL: DVVMTQTPLSLPVSLGDQASISCRSSQSLVHSNGNTYLHWYLQKPGQSPKLLIYKVSNRFSGVPDRFSGSGSGTDFTLKISRVEAEDLGVYFCSQSIHVPFTFGSGTKLEIK
notes: also called Ab_8
B9: Ab_034 (H5S15-16A11B) (antibody, V domains shown)
VH: DVQLVESGGGLVQPGGSRKLSCAASGFTFSSFGMHWVRQAPEKGLEWVAHISSGSSTIYYADTVKGRFTISRDNPKNTLFLQMTSLRSEDTAMYYCARGAYGNFAWFPYWGQGTLVTVSA
VL: DVVMTQTPLSLSVSLGDQASISCRSSQSLVHSNGNTYLHWYLQKPGQSPKLLIYKVSNRFSGVPDRFSGSGSGTDFTLKISRVEAEDLGVYFCSQSTHVPTFGSGTKLEIK
notes: also called Ab_34
B10: Ab_035 (H5S15-9A10A) (antibody, V domains shown)
VH: B9 VH with S31D
VL: B9 VL with S12P, S32T, K50R, S70G
notes: also called Ab_35
B11: Ab_058 (H5S19-6A8A) (antibody, V domains shown)
VH: EVQLVESGGGLVKPGGSLKLSCAASGFTFNIYTMSWVRQSPEMRLEWVAEISSGGSHTYYPDTVTGRFTISRDNAKNTLYLEMSSLRSEDTAIYYCARGGSLFDYWGQGTTLTVSS
VL: DVQITQSPSYLAASPGETITINCRTSKNISKYLAWYQEKPGKTNKLLIYSGSTLQSGIPSRFSGSGSGTDFTLTISSLEPEDFVMYHCQQHNEYPWTFGGGTKLEIK
notes: also called Ab_58
B12: Ab_055 (H5S19-1A1A) (antibody, V domains shown)
VH: DVQLQESGPGLVKPSQSLSLTCTVTGYSITSDYAWNWIRQFPGNKLEWMGYIAYSGGTSYSPSLKSRISITRDTSKNQFFLQLNSVTTEDTATYYCVYFKYGGAFAYWGQGTLVTVSA
VL: NIVLTQSPASLAVSLGQRATISCRASESVDSYGNSLMHWYQQKPGQPPKLLIYLASNLESGVPARFSGSGSRTDFTLTIDPVEADDAATYYCQQNNEDPPTFGGGTKLEI
notes: also called Ab_55
B13: Ab_085 (H5S20-53A41A) (antibody, V domains shown)
VH: EVQLVESGGGLVKPGGSLKLSCAASGFTFSSYAMSWVRQSPEKRLEWVAEISSGGSYTYYPDTVTGRFTISRDNAKNTLYLEMSSLRSEDTAMYYCAREGLRRDYYALDYWGQGTSVTVSS
VL: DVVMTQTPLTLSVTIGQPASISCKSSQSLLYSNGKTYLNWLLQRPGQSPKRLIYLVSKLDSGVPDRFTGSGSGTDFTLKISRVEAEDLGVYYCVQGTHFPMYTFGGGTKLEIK
notes: also called Ab_85
B14: Ab_082 (H5S20-55A36A) (antibody, V domains shown)
VH: EVKLVESGGGLVQPGGSLKLSCAASGFTFSSYTMSWVRQTPEKRLEWVADISNGGGSTYYPDTVKGRFTISRDNAKNTLYLQMSSLKSEDTAMYYCARHRGYGNYVYAMDYWGQGTSVTVSS
VL: DIVMTQSQKFMSTSVGDRVSVTCKASQNVGTNVAWYQQKPGQSPKALIYSASYRYSGVPDRFTGSGSGTDFTLTISNVQSEDLAEYFCQQYNSYPLTFGGGTKLEIK
notes: also called Ab_82

The binders below were run against T1, His-tagged human HVEM (assay: BLI OctetRed96, mAb captured, 200 nM His-HVEM).
Procedure: Binding of antibodies to HVEM may also be determined by bio-layer interferometry (BLI) on an OctetRed96@ system (Sartorius). (See http://www.fortebio.com/bli_technology.html for general description of a BLI assay.) For this experiment, murine anti-human HVEM antibodies were captured from culture supernatant using anti-mouse IgG Fc capture and immobilized to dip and read biosensors. Sensors were then dipped into a solution of 200 nM His-tagged human HVEM in phosphate-buffered saline (PBS). Probes were dipped into PBS assay buffer and the dissociation rate (koff) was measured. The association rate (kₒₙ) and affinity (KD) were determined by curve fitting analysis.

Row | kon [M⁻¹ s⁻¹] | Kd [nM] | koff [s⁻¹] | Binder
1 | 769 |  |  | B1
2 | 2240 |  |  | B2
3 | 42700 | 103 | 0.00439 | B3
4 | 80700 | 90.9 | 0.00734 | B4
5 | 294000 | 370 | 0.109 | B5
6 | 565000 | 48.2 | 0.0272 | B6
7 | 86600 | 12400 | 1.08 | B7
8 | 482000 | 4.8 | 0.00231 | B8
9 | 270000 | 8.67 | 0.00235 | B9
10 | 357000 | 6.58 | 0.00235 | B10
11 | 469000 | 2.67 | 0.00125 | B11
12 | 30200 | 544 | 0.0164 | B12

The binders below were run against T2, Human HEVM recombinant protein (Sino …) (assay: competition ELISA, competitor BTLA-His).
Procedure: The competitive activity of HVEM antibody to BTLA or LIGHT was evaluated with ELISA-based competitive assay. Briefly Human HEVM recombinant protein (Sino Biological, 10334-H02H, 4 ug/ml, 100 ul/well) was coated to ELISA plate (Thermo Scientific, 469949, 4C overnight). A pre-mixture of HVEM antibody clone with seral dilution and 400 nM BTLA-His (R&D systems, 9235-BT-050) or LIGHT-His (SinoBiological, 10386-H07H) recombinant protein was made and added to the ELISA plate after blocking with 3% BSA (200 ul/well, RT 2 Hr) for 1 Hr at RT. The serial dilutions of HVEM antibody clone involve 7 different concentrations, with a 3-fold dilution performed start from 100 nM for BTLA or 325 nM for LIGHT competitive assay. The concentration was the final concentration. Plate was washed with PBST; diluted HRP-anti-His (Biolegend, 652504, 1:1000) with PBS containing 5% FBS was added 100 ul per well for 1 Hr at RT. TMB substrate (KPL, 52-00-00) 100 ul per well after washing and incubate at room temperature for 15 minutes; then stop the development by adding 100 ul stop solution (KPL, 50-85-06). Plate was read at 450 nm. The IC50 was calculated using GraphPad Prism software (GraphPad Software, Inc. San Diego, CA, USA).

Row | IC50 [nM] | Binder
13 | 3.2 | B5
14 | 1.6 | B6
15 | 1.9 | B8
16 | 1.3 | B9
17 | 1.4 | B10
18 | 1.3 | B11

These binders were tested against T3, human HVEM (assay: ELISA).

Row | ELISA signal | Binder
19 | 0.049 | B13
20 | 2.42 | B1
21 | 2.44 | B2
22 | 2.89 | B3
23 | 2.88 | B4
24 | 3.24 | B5
25 | 3.26 | B6
26 | 0.147 | B7
27 | 0.844 | B14
28 | 3.4 | B8
29 | 3.19 | B9
30 | 3.2 | B10
31 | 3.16 | B11
32 | 2.95 | B12

What follows are binders tested against T4, cynomolgus monkey HVEM (assay: ELISA).

Row | ELISA signal | Binder
33 | 0.061 | B13
34 | 0.062 | B1
35 | 0.063 | B2
36 | 2.1 | B3
37 | 2.32 | B4
38 | 0.062 | B5
39 | 0.06 | B6
40 | 0.079 | B7
41 | 0.06 | B14
42 | 2.94 | B8
43 | 0.064 | B11
44 | 2.21 | B12

Each binder was assayed against T5, murine HVEM (assay: ELISA).

Row | ELISA signal | Binder
45 | 0.046 | B13
46 | 0.044 | B1
47 | 0.048 | B2
48 | 0.042 | B3
49 | 0.042 | B4
50 | 0.045 | B5
51 | 0.044 | B6
52 | 0.043 | B7
53 | 0.044 | B14
54 | 0.077 | B8
55 | 0.045 | B9
56 | 0.045 | B10
57 | 0.043 | B11
58 | 0.042 | B12
